This passage reports EC50 results from patent US20170007716A1 (published 2017).

Test [1] has as its target T1, human FAP on HT1080 cells (HT1080-huFAP, stable transfectants) (UniProt Q12884 1-760). The experiment in a line: FACS. (In general: Flow cytometry measures light scatter and fluorescence of single cells or particles in a stream.)
For test [2], the target named is T2, huFAP fusion protein (UniProt Q12884 27-760). The experiment in a line: ELISA. In general terms: In an ELISA, binding on a coated surface is turned into a signal by an enzyme label.
The target in test [3] is T2, huFAP fusion protein. In words: ELISA; DAR 3.48.
Test [4] concerns the target T1, human FAP on HT1080 cells …. In words: FACS; DAR 3.48.

T2 sequence (Q12884 27-760): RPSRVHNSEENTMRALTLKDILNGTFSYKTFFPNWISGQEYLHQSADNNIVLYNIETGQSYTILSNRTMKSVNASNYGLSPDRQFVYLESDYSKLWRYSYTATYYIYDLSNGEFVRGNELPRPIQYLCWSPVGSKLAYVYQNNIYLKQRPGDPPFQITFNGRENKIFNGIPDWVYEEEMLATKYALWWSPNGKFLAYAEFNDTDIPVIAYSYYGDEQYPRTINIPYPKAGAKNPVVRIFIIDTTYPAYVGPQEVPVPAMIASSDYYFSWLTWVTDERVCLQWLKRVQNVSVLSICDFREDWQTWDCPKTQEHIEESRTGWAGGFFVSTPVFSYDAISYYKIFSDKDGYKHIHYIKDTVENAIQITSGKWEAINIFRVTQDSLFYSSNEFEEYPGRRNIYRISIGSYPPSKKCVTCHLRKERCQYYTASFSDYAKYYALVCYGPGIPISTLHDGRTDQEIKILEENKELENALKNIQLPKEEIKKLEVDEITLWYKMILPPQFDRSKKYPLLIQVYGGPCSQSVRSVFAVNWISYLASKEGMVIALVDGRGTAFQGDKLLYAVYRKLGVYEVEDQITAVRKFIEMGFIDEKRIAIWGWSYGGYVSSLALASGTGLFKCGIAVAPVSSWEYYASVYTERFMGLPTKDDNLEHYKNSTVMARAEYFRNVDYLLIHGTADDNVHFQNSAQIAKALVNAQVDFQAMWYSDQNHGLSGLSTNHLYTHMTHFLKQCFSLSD
T1 sequence (Q12884 whole entry, the tested form may be a part): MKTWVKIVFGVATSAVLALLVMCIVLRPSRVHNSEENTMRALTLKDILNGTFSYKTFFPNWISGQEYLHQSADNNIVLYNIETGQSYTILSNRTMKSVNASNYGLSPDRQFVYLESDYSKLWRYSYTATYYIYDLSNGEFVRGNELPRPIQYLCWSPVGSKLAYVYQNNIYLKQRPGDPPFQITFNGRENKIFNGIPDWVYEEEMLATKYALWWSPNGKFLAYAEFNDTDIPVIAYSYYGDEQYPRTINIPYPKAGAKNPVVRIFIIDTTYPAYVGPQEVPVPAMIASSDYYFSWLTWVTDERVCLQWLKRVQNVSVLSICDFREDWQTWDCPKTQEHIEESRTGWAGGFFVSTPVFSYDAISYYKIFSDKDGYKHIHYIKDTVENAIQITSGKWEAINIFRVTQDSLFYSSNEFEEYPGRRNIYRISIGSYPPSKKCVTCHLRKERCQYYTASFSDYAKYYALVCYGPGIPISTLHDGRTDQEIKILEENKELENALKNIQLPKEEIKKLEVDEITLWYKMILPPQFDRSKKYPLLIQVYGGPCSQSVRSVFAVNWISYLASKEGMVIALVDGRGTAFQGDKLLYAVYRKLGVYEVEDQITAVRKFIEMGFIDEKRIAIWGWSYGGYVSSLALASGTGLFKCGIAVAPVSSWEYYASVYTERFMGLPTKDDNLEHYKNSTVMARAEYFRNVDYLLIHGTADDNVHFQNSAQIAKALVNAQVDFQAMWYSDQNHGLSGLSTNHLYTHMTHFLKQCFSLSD

B1: humanized anti-FAP IgG1 hu36 (hu36-IgG1) (antibody, V domains shown)
VH: QVQLVQSGAEVKKPGASVKVSCKASGYTFTENIIHWVRQAPGQGLEWMGWFHPGSGSIKYNEKFKDRVTMTADTSTSTVYMELSSLRSEDTAVYYCARHGGTGRGAMDYWGQGTLVTVSS
VL: DIQMTQSPSSLSASVGDRVTITCRASKSVSTSAYSYMHWYQQKPGKAPKLLIYLASNLESGVPSRFSGSGSGTDFTLTISSLQPEDFATYYCQHSRELPYTFGQGTKLEIKR
One may read the EC50 as the concentration at which the effect is half-maximal. Read a low EC50 as higher potency in that assay. Consider B1, for which the EC50 was 0.067 nM in test [1] and 0.21 nM with huFAP fusion protein [2].

B2: Anti-FAP hu36:TAM471 ADC (ADC-471) (antibody, V domains shown)
VH: B1 VH
VL: B1 VL
modifications: cytolysin TAM471 through maleimidocaproyl-vcPABA linker on cysteine residues (not site-specific); cytolysin TAM471 through maleimidocaproyl-vcPABA linker on cysteine residues (not site-specific), DAR 3.48 for the whole antibody
For B2, the 50% effective concentration (EC50) in the test with huFAP fusion protein [3] was determined as 0.153 nM; in test [4], 0.081 nM.
